Assay [1] has as its target T1, human IGF2^1-67 (mature insulin-like growth factor 2) (human, UniProt P01344 25-91, biotinylated (site not stated) where immobilised on the chip (Tables 1-4)).
T1 construct: mature; also called mature IGF2; biotinylated IGF2
Briefly: SPR kinetic, biotin-IGF2 on chip, pH 7.4. Here is the method: (§1) Final kinetic analysis of mutants by SPR was conducted using a Biacore T200 biosensor at 25° C. in either HBS-EP (10 mM HEPES pH 7.4, 150 mM NaCl, 3 mM EDTA, and 0.005% (v/v) surfactant P20) or MES-EP (20 mM MES pH 6.5, 150 mM NaCl, 3 mM EDTA, and 0.005% (v/v) surfactant P20) at a flow-rate of 40 μL min⁻¹. […] For the analysis of the Fc-domain 11^AB5 interaction, approximately 50 RU of a biotinylated IGF2:biotinylated ubiquitin mixture (1:8 proportion) was immobilized on the CM5-streptavidin chip. This interaction was also analysed by immobilizing the Fc-domain 11^AB5 and Fc-domain 11^AB5-RHH (or Fc-domain 11^I1572A as control) by Human Antibody Capture (monoclonal mouse anti-human IgG antibody immobilised on a CM5 chip by amine coupling, GE Healthcare) with and without human IgG1 Fc fragment (Bethyl Laboratories, UK) in the control flow cell. […] T200 BiaEvaluation software (GE Healthcare) was used to fit the resulting curves according to a 1:1 binding model. Steady state affinities were determined using the kinetic data, taking the response average at 5 seconds before injection end and for 5 seconds average. Thermodynamic data was performed across the temperature range of 10° C. to 30° C., van't Hoff and Erying plots generated and ΔH, −TΔS and ΔG values determined as previously described.
(In SPR one partner is held on a chip, and binding of the other changes the refractive index at the surface.)

Assay [2] has as its target T1, human IGF2^1-67 (mature insulin-like …). Description: SPR steady state, biotin-IGF2 on chip, pH 7.4. The procedure: as §1
Assay [3] has the same target. Description: SPR.
Text: (§2) Surface plasmon resonance (SPR) binding analysis of recombinant M6P/IGF2R domain 11 mutants interaction with IGF2. Kon indicates association (on) rate; koff, dissociation (off) rate; RU, response units. Binding to IGF2 assessed with BIAcore T200 using purified biotinylated IGF2 and IGF1 on a streptavidin biosensor chip. Recombinant proteins were expressed either in E. coli and/or P. pastoris. All the mutants in the FG and CD loops are on the domain 11^AB5 background for the AB loop unless otherwise stated. All experiments were carried out at 25° C. in HBS-EP buffer (pH 7.4), were repeated 2-5 times on two independent BIAcore chips. nd=not determined. Data for KD expressed as mean of each experiment, and means of kon and koff are shown.
as §1, with “model.” for “model. Steady state affinities were determined using the kinetic data, taking the response average at 5 seconds before injection end and for 5 seconds average. Thermodynamic data was performed across the temperature range of 10° C. to 30° C., van't Hoff and Erying plots generated and ΔH, −TΔS and ΔG values determined as previously described.”

The target is the same in assay [4]. Description: SPR kinetic, biotin-IGF2 on chip, pH 7.4.
Text: as §2
as §1, with “average.” for “average. Thermodynamic data was performed across the temperature range of 10° C. to 30° C., van't Hoff and Erying plots generated and ΔH, −TΔS and ΔG values determined as previously described.”
This is another data set of the same source.

The target is the same in assay [5]. Briefly: SPR steady state, biotin-IGF2 on chip, pH 7.4.
Text: as §2
as §1, with “average.” for “average. Thermodynamic data was performed across the temperature range of 10° C. to 30° C., van't Hoff and Erying plots generated and ΔH, −TΔS and ΔG values determined as previously described.”
The source holds these as a separate data set.

For orientation: Kd means the concentration at which binding is half-saturated. Lower therefore signals tighter binding. What is called koff is a measure of how fast the partners let go of each other. Lower therefore signals a long-lived complex. One may read the kon as the rate constant with which the complex forms. High values mean fast association, low ones slow association.

Where two headings read alike, the source gives them in different places.

T1 sequence (P01344 25-91): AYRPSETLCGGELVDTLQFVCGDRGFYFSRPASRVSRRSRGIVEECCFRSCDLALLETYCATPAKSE

B1: domain 11^AB3 Q1569R P1597K S1602H G1603K (receptor)
chain: MKSNEHDDCQVTNPSTGHLFDLSSLSGRAGFTAAYSKSGVVYMSICGENENCPPGVGACFGRTRISVGKANKRLRYVDQVLQLVYKDGSKCPSKHKLSYKSVISFVCRPEAGPTNRPMLISLDKQTCTLFFSWHTPLACEQATECSV
notes: See m5
In assay [1], B1 returned a Kd of 0.78 nM, a koff of 0.0171 s⁻¹ and a kon of 2.08e+07 M⁻¹ s⁻¹. Also, the Kd in assay [2] was 1.62 nM.

B2: domain 11^AB5 K1601R (receptor)
chain: MKSNEHDDCQVTNPSTGHLFDLSSLSGRAGFTAAYAKGWGVYMSICGENENCPPGVGACFGQTRISVGKANKRLRYVDQVLQLVYKDGSPCPSRSGLSYKSVISFVCRPEAGPTNRPMLISLDKQTCTLFFSWHTPLACEQATECSV
notes: See m5
As for B2, the “fold improvement of affinity” value in assay [3] was at most 2 fold. Also, in assay [4], the Kd was 4.75 nM, the koff was determined as 0.0251 s⁻¹ and the kon came to 5.28e+06 M⁻¹ s⁻¹. Besides, in assay [5], the Kd is 5.78 nM.

B3: domain 11^AB5 P1597A (receptor)
chain: MKSNEHDDCQVTNPSTGHLFDLSSLSGRAGFTAAYAKGWGVYMSICGENENCPPGVGACFGQTRISVGKANKRLRYVDQVLQLVYKDGSACPSKSGLSYKSVISFVCRPEAGPTNRPMLISLDKQTCTLFFSWHTPLACEQATECSV
notes: See m5
In assay [1], B3 displayed a Kd of 9.07 nM, a koff of 0.0174 s⁻¹ and a kon of 1.9e+06 M⁻¹ s⁻¹. In assay [2], this molecule returned a Kd of 12.4 nM.

B4: domain 11^AB5 P1597K S1602H (receptor)
chain: MKSNEHDDCQVTNPSTGHLFDLSSLSGRAGFTAAYAKGWGVYMSICGENENCPPGVGACFGQTRISVGKANKRLRYVDQVLQLVYKDGSKCPSKHGLSYKSVISFVCRPEAGPTNRPMLISLDKQTCTLFFSWHTPLACEQATECSV
notes: See m5
In assay [1], B4 showed a Kd of 4.62 nM, a koff of 0.0096 s⁻¹ and a kon of 2.09e+06 M⁻¹ s⁻¹. In assay [2], this molecule came in with a Kd of 7.85 nM.

B5: domain 11^AB5 P1597N (receptor)
chain: MKSNEHDDCQVTNPSTGHLFDLSSLSGRAGFTAAYAKGWGVYMSICGENENCPPGVGACFGQTRISVGKANKRLRYVDQVLQLVYKDGSNCPSKSGLSYKSVISFVCRPEAGPTNRPMLISLDKQTCTLFFSWHTPLACEQATECSV
notes: See m5
In assay [1], B5 displayed a Kd of 4.13 nM, a koff of 0.018 s⁻¹ and a kon of 4.72e+06 M⁻¹ s⁻¹. This molecule displayed a Kd in assay [2] of 5.36 nM.

B6: domain 11^AB5 P1597Q (receptor)
chain: MKSNEHDDCQVTNPSTGHLFDLSSLSGRAGFTAAYAKGWGVYMSICGENENCPPGVGACFGQTRISVGKANKRLRYVDQVLQLVYKDGSQCPSKSGLSYKSVISFVCRPEAGPTNRPMLISLDKQTCTLFFSWHTPLACEQATECSV
notes: See m5
B6: in assay [1], the Kd amounted to 3.83 nM, the koff stood at 0.0203 s⁻¹ and the kon is 6.53e+06 M⁻¹ s⁻¹. Also, the Kd in assay [2] was 4.51 nM.

B7: domain 11^AB5 P1597S (receptor)
chain: MKSNEHDDCQVTNPSTGHLFDLSSLSGRAGFTAAYAKGWGVYMSICGENENCPPGVGACFGQTRISVGKANKRLRYVDQVLQLVYKDGSSCPSKSGLSYKSVISFVCRPEAGPTNRPMLISLDKQTCTLFFSWHTPLACEQATECSV
notes: See m5
With B7, in assay [1], binding was put at a Kd of 4.19 nM, the koff was 0.0193 s⁻¹ and the kon worked out at 5e+06 M⁻¹ s⁻¹. Also, in assay [2], the Kd was 4.9 nM.

B8: domain 11^AB5 Q1569R P1597K S1602H (receptor)
chain: MKSNEHDDCQVTNPSTGHLFDLSSLSGRAGFTAAYAKGWGVYMSICGENENCPPGVGACFGRTRISVGKANKRLRYVDQVLQLVYKDGSKCPSKHGLSYKSVISFVCRPEAGPTNRPMLISLDKQTCTLFFSWHTPLACEQATECSV
notes: See m5
In assay [1], B8 returned a dissociation constant Kd of 0.92 nM, a koff of 0.0073 s⁻¹ and a kon of 7.87e+06 M⁻¹ s⁻¹. The molecule also came in with a Kd in assay [2] of 2.11 nM.

B9: domain 11^AB5 Q1569R P1597H K1631W (receptor)
chain: MKSNEHDDCQVTNPSTGHLFDLSSLSGRAGFTAAYAKGWGVYMSICGENENCPPGVGACFGRTRISVGKANKRLRYVDQVLQLVYKDGSHCPSKSGLSYKSVISFVCRPEAGPTNRPMLISLDWQTCTLFFSWHTPLACEQATECSV
notes: See m5
For the molecule B9, in assay [1], the Kd is 1.02 nM, the koff came out at 0.0115 s⁻¹ and the kon is 1.12e+07 M⁻¹ s⁻¹. Also, in assay [2], binding was characterised by a dissociation constant (Kd) of 1.95 nM.

B10: domain 11^AB5 P1597L (receptor)
chain: MKSNEHDDCQVTNPSTGHLFDLSSLSGRAGFTAAYAKGWGVYMSICGENENCPPGVGACFGQTRISVGKANKRLRYVDQVLQLVYKDGSLCPSKSGLSYKSVISFVCRPEAGPTNRPMLISLDKQTCTLFFSWHTPLACEQATECSV
notes: See m5
In the case of B10, in assay [1], the Kd stood at 3.86 nM, the koff amounted to 0.015 s⁻¹ and the kon came to 4.18e+06 M⁻¹ s⁻¹. Also, in assay [2], the Kd was 4.85 nM.

B11: domain 11^AB5 P1597K (receptor)
chain: MKSNEHDDCQVTNPSTGHLFDLSSLSGRAGFTAAYAKGWGVYMSICGENENCPPGVGACFGQTRISVGKANKRLRYVDQVLQLVYKDGSKCPSKSGLSYKSVISFVCRPEAGPTNRPMLISLDKQTCTLFFSWHTPLACEQATECSV
notes: See m5
As to B11, in assay [1], binding was put at a Kd of 1.94 nM, the koff is 0.012 s⁻¹ and the kon came out at 9.54e+06 M⁻¹ s⁻¹. The molecule also gave a Kd in assay [2] of 2.21 nM.

B12: domain 11^AB5 Q1569R P1597K (receptor)
chain: MKSNEHDDCQVTNPSTGHLFDLSSLSGRAGFTAAYAKGWGVYMSICGENENCPPGVGACFGRTRISVGKANKRLRYVDQVLQLVYKDGSKCPSKSGLSYKSVISFVCRPEAGPTNRPMLISLDKQTCTLFFSWHTPLACEQATECSV
notes: See m5
In assay [1], B12 yielded a Kd of 0.95 nM, a koff of 0.0091 s⁻¹ and a kon of 9.59e+06 M⁻¹ s⁻¹. In assay [2], this molecule displayed a Kd of 1.69 nM.

B13: domain 11^AB5 S1602Q (receptor)
chain: MKSNEHDDCQVTNPSTGHLFDLSSLSGRAGFTAAYAKGWGVYMSICGENENCPPGVGACFGQTRISVGKANKRLRYVDQVLQLVYKDGSPCPSKQGLSYKSVISFVCRPEAGPTNRPMLISLDKQTCTLFFSWHTPLACEQATECSV
notes: See m5
Regarding B13, in assay [3], the “fold improvement of affinity” value was at most 2 fold. In assay [4], the Kd turned out to be 3.61 nM, the koff is 0.0191 s⁻¹ and the kon is 5.88e+06 M⁻¹ s⁻¹. In assay [5], this molecule yielded a Kd of 5.11 nM.

The values are drawn from US20180237497A1 (CANCER RESEARCH TECHNOLOGY, published 2018).
